This is an account of results in patent US20250340603A1, “A METHOD FOR MODULATING PLANT ADAPTATION TRAITS” (CRAG (Centre de Recerca en Agrigenòmica), priority 2021, published 2025).

In the test the target is T1, BRI1 (BRASSINOSTEROID … 1), BiFC negative control (Arabidopsis, UniProt O22476 24-1196).
T1 construct: whole, on cells; not shown: the construct of this control is not described
T1 sequence (looked up): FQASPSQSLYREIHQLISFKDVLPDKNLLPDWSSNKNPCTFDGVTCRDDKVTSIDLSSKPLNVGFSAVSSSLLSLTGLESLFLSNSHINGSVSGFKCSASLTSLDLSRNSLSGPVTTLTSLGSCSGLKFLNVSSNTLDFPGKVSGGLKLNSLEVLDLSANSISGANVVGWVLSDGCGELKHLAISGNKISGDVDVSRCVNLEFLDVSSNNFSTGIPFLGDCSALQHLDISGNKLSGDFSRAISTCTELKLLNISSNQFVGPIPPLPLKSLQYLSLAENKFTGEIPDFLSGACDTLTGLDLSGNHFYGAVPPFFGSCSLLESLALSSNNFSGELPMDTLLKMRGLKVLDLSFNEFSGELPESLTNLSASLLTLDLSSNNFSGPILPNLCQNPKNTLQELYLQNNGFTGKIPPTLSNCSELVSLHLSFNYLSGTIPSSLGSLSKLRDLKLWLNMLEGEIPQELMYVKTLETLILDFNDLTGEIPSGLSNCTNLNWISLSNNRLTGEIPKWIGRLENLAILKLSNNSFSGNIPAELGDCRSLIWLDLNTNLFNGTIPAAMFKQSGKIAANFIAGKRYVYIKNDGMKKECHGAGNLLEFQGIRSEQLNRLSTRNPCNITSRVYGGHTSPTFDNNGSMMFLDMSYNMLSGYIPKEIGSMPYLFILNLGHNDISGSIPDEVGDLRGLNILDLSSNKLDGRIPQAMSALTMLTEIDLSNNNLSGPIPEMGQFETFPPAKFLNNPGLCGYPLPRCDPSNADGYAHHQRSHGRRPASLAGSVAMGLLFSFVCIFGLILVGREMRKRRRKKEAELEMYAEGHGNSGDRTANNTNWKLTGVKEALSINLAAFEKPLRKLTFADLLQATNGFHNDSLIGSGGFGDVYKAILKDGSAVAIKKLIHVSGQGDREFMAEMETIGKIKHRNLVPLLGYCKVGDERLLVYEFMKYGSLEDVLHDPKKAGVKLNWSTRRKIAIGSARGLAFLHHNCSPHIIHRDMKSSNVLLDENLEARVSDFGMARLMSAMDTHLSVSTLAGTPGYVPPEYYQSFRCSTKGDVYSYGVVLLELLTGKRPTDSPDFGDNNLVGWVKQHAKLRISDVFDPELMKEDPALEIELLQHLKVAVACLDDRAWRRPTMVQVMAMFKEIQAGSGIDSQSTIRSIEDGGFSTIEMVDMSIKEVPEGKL
Briefly: BiFC (split YFP) in Nicotiana benthamiana leaves, confocal microscopy.

B1: BRL3 (BRASSINOSTEROID RECEPTOR LIKE 3), full length, fused to a half of YFP (BiFC construct) (receptor)
chain: RRLLSDDVNDTALLTAFKQTSIKSDPTNFLGNWRYGSGRDPCTWRGVSCSSDGRVIGLDLRNGGLTGTLNLNNLTALSNLRSLYLQGNNFSSGDSSSSSGCSLEVLDLSSNSLTDSSIVDYVFSTCLNLVSVNFSHNKLAGKLKSSPSASNKRITTVDLSNNRFSDEIPETFIADFPNSLKHLDLSGNNVTGDFSRLSFGLCENLTVFSLSQNSISGDRFPVSLSNCKLLETLNLSRNSLIGKIPGDDYWGNFQNLRQLSLAHNLYSGEIPPELSLLCRTLEVLDLSGNSLTGQLPQSFTSCGSLQSLNLGNNKLSGDFLSTVVSKLSRITNLYLPFNNISGSVPISLTNCSNLRVLDLSSNEFTGEVPSGFCSLQSSSVLEKLLIANNYLSGTVPVELGKCKSLKTIDLSFNALTGLIPKEIWTLPKLSDLVMWANNLTGGIPESICVDGGNLETLILNNNLLTGSLPESISKCTNMLWISLSSNLLTGEIPVGIGKLEKLAILQLGNNSLTGNIPSELGNCKNLIWLDLNSNNLTGNLPGELASQAGLVMPGSVSGKQFAFVRNEGGTDCRGAGGLVEFEGIRAERLEHFPMVHSCPKTRIYSGMTMYMFSSNGSMIYLDLSYNAVSGSIPLGYGAMGYLQVLNLGHNLLTGTIPDSFGGLKAIGVLDLSHNDLQGFLPGSLGGLSFLSDLDVSNNNLTGPIPFGGQLTTFPLTRYANNSGLCGVPLPPCSSGSRPTRSHAHPKKQSIATGMSAGIVFSFMCIVMLIMALYRARKVQKKEKQREKYIESLPTSGSSSWKLSSVHEPLSINVATFEKPLRKLTFAHLLEATNGFSADSMIGSGGFGDVYKAKLADGSVVAIKKLIQVTGQGDREFMAEMETIGKIKHRNLVPLLGYCKIGEERLLVYEYMKYGSLETVLHEKTKKGGIFLDWSARKKIAIGAARGLAFLHHSCIPHIIHRDMKSSNVLLDQDFVARVSDFGMARLVSALDTHLSVSTLAGTPGYVPPEYYQSFRCTAKGDVYSYGVILLELLSGKKPIDPEEFGEDNNLVGWAKQLYREKRGAEILDPELVTDKSGDVELLHYLKIASQCLDDRPFKRPTMIQVMTMFKELVQVDTENDSLDEFLLKETPLVEESRDKEPTQLSCTKWIDLEDPW
notes: also called BRL3 receptor; AT3G13380; not shown: half of YFP (YN or YC, both directions tested) from vectors pGTQL1211-YN / pGTQL1221-YC
Turning to B1, the binding result is recorded as “no binding”.
